This passage reports fold enhancement in binding activity compared to FITC-T649v results from patent US20120141527A1.

For this test, the target named is doubly-mutant HR1 peptides. Briefly: native PAGE complex assembly assay, densitometry of fluorescence scans.

* marks the point of attachment. FITC = O=C1OC2(c3ccc(O)cc3Oc3cc(O)ccc32)c2ccc(NC(=S)*)cc21; βAla = NCCC(=O)O Where only a bound is given, the exact number is not on record here.

B1: FITC-SAH-gp41(626-662)(A, F) (peptide)
peptide: {FITC-βAla}-LTWAEWDAEINNYTSLIHSLIEESQNQAEKNAQELLE-NH2
modifications: staple (positions not given here); also: two hydrocarbon staples from S5 residues, positions not given here
As to B1, the fold enhancement in binding activity compared to FITC-T649v was less than 2 fold.
